Laboratory results reported in publication PMC9848473, “The structure of DarB in complex with Rel^NTD reveals nonribosomal activation of Rel stringent factors” (Science Advances, 2023).

Biological target: full-length Bacillus subtilis Rel (RelBs) (Bacillus subtilis)
Test: cell-based or functional assay

rate of ^3H-ppGpp hydrolysis by RelBs saturated with DarB: 5.5 fold
B1: Bacillus subtilis DarB (natural protein, UniProt O31698 1-147, looked up)
chain: MISLQSDQLLEATVGQFMIEADKVAHVQVGNNLEHALLVLTKTGYTAIPVLDPSYRLHGLIGTNMIMNSIFGLERIEFEKLDQITVEEVMLTDIPRLHINDPIMKGFGMVINNGFVCVENDEQVFEGIFTRRVVLKELNKHIRSLNK
